We go through five molecules from paper PMC4426065 (Structure (London, England : 1993), 2015).

B1: Atg17 (K. lactis) (natural protein, Kluyveromyces lactis, UniProt Q6CS99 1-423, looked up)
chain: MSDAATTIPSDEIDKLWNKARNQLVEAQVECEESLKILSKVRTEMDSSQKSRFKLKFILNCLVNQVEFFKNIMLEKCISTELIDNEWSKLVLVEIVNDVSYWQNEITTKMKILQGTKYDLTDDHSSLSDFICMDHVDILQQKIDEIPIIKQQVTNIRQHYKSIKDRIENQLVAVKLKKLRTYFDSHFSRDSKNNLFKLLESDYVTELNEFENELADFLRSITDHFDKCTILKEQQIPLPDLKELFQIVKKDDTQLENIRELVFETGLEVKAFSKKVNETISEIMDKIGGFHLLASKIVTELEKCEEYLSIFQKIANLVFVYKESCIKKIEQVQQLCEFYDKFKLGYKNLLRERDRRKATALQMEKILKECQEKLQALSDADLDQRQQFLLENGDYLPENIWPGYIDDMESMYSFEYSIHNVPN

What all share (assay): SAXS
In series [1] the target is Atg1 minipentamer: Atg1EAT-Atg13_(350-525)-Atg17-Atg31-Atg29_(1-85) (K. lactis) (Kluyveromyces lactis) (UniProt Q6CSX2).
Series [2] concerns the target Atg17-Atg31-Atg29_(1-85) subcomplex from Kluyveromyces lactis (dimeric double crescent) (Kluyveromyces lactis) (UniProt Q6CS99).
Series [3] concerns the molecule itself.
The target in the series “Atg17 (K. lactis)” is B1.
Series [4] deals with the molecule itself. The source holds these as a separate data set.

By stoichiometry N is commonly meant the number of molecules, sites or subunits per partner or assembly. “Atg1 minipentamer: Atg1EAT-Atg13_(350-525)-Atg17-Atg31-Atg29_(1-85) (K. lactis) (from UniProt Q6CSX2 562-831; Q6CWK2 350-525; Q6CS99 1-423; Q6CTU8 1-85) (complex)” gave a stoichiometry N in series [1] of 4.

“Atg17-Atg31-Atg29_(1-85) subcomplex from Kluyveromyces lactis (dimeric double crescent) (from UniProt Q6CS99 1-423; Q6CTU8 1-85)” yielded a stoichiometry N in series [2] of 4.

Consider B1, for which the binding result in the series “SAXS [3]” is “binds”.

B2: Atg13 residues 350-525 (K. lactis) (domain or fragment, Kluyveromyces lactis, UniProt Q6CWK2 350-525, looked up)
chain: AALKVQRGSAGSTIVNGDVPPELSSVGSGSKYSSSFGRIRRHSSIRRSESFDRTAKPRKSTENPPEDLLEFVKLLEDKKELNMKPNTILPQQDISNSLMRFQSMKSNNDALSDNLSMSMSIDQPNVRFGSNSHSPIPSFSPNYGSIPSRLSQGSRNNSNAELITSRKSSLDRHKHN
Consider B2, for which, in the series with Atg17 (K. lactis), the binding result is given as “binds”.

B3: Atg1 EAT domain (K. lactis Atg1 residues 562-831) (domain or fragment, Kluyveromyces lactis, UniProt Q6CSX2 562-831, looked up)
chain: DSNITPAVESLAAKAFVMYSFAEMKFSQILPTPPSSTDYDPLSDKRLSNGSCAIEDEEDLDQGRPPSNQTLTSATTKISSATNVDTQIPAPELKKLCTESLLLYLKALTILAASMKLTSKWWYENESKNCTLKLNILVQWIRDRFNECLDKAEFLRLKLHAINTSPNSQWSDDDPVIFVEKLIYDRALDISRNAARMEMESGNYNTCELAYATSLWMLEILLDENFQFNEVYDDEYASNITSLDESDKEMIKKYISSIANRLKALKSKMV
On to B3, for which, in the series “SAXS [4]”, the “stoichiometry N” value was determined as 2.
